# Measured values as given in the DeepSol protein solubility set.
# Assay: soluble on expression in E. coli; label from the status in PepcDB or PDB records
row,Sequence,soluble on expression in E. coli
1,MDINKMTYAVQSALQQAVELSQQHKLQNIEIEAILSAALNESESLYKSILERANIEVDQLNKAYEDKLNTYASVEGDNIQYGQYISQQANQLITKAESYMKEYEDEYISMEHILRSAMDIDQTTKHYINNKVEVIKEIIKKVRGGNHVTSQNPEVNYEALAKYGRDLVEEVRQGKMDPVIGRDEEIRNTIRILSRKTKNNPVLIGEPGVGKTAIVEGLAQRIVKKDVPESLLDKTVFELDLSALVAGAKYRGEFEERLKAVLKEVKESDGRIILFIDEIHMLVGAGKTDGAMDAGNMLKPMLARGELHCIGATTLNEYREYIEKDSALERRFQKVAVSEPDVEDTISILRGLKERYEVYHGVRIQDRALVAAAELSDRYITDRFLPDKAIDLVDQACATIRTEMGSNPTELDQVNRRVMQLEIEESALKNESDNASKQRLQELQEELANEKEKQAALQSRVESEKEKIANLQEKRAQLDESRQALEDAQTNNNLEKAAELQYGTIPQLEKELRELEDNFQDEQGEDTDRMIREVVTDEEIGDIVSQWTGIPVSKLVETEREKLLHLSDILHKRVVGQDKAVDLVSDAVVRARAGIKDPNRPIGSFLFLGPTGVGKTELAKSLAASLFDSEKHMIRIDMSEYMEKHAVSRLIGAPPGYIGHDEGGQLTEAVRRNPYSVILLDEVEKAHTDVFNVLLQILDEGRLTDSKGRSVDFKNTIIIMTSNIGSQVLLENVKETGEITESTEKAVMTSLNAYFKPEILNRMDDIVLFKPLSIDDMSMIVDKILTQLNIRLLEQRISIEVSDDAKAWLGQEAYEPQYGARPLKRFVQRQIETPLARMMIKEGFPEGTTIKVNLNSDNNLTFNVEKIHE,not soluble
2,MDITPALTEMELDHKPTCETVPGLPQKKHYRQRAHSNPHSDHDIEYPLTPNHMDWTKYYGDYTKGRQVDFADIGCGYGGLLMRLSPKYPDNLMIGMEIRVKVSDYVNEKIQALRKHHAEAGHYRNVAVLRSNAMKYMPNYFHKGQLSKMFFLFPDPHFKNKKHKWRIITPTLLSEYAYVLREGGIIYTITDVKDLHEWMVKHLSEHPLFERLTEEEMKKDPIVEMLFESTEEGQKVTRNDGGKWPAIFRRLPNPAL,not soluble
3,MDIVDEKWEEYLKNLDEMSKSALLETFNIGASHAATALSEMTGKEVNISVPDLKIIAIKNVPEVVGEDVKVAVYIELGKDFSSHAFFIADYEDALRMFDIIMGNPLGTTKEMDEMVKSSFMEVGNILISAFANALSEFLGITIEQTPPSLAIDFLPAILDFALADIGKYCDYTIILQTNIKISDVKFEEHFLLFPKPEDMKKILEKLLGGFA,soluble
4,MDKIIFQRVTDCEYPSLFSIYKKYLKPTIEEALGWDELYQQQRFNQSYQKEWFDWIMYNGERLGIICTKPDAIRSTIHIHLLIVFEKYQNKGVGTAVMKCYQKHYSDAVTKSCLSAFKVNKSVINFYLSLGYQIVREDEHFVEMERSLCFSGYMGES,not soluble
5,MDKSELFLTFEAKVKGKKINLPDLKIADGVISTEALASALNASAAIAPDAFQRIIKQAYDANIMFLIQQAQIRAQEINKGEVKDWKDLVANAKDAPNQDVTVEVQAYASPDGGVELNEKLSEQREKNTTTALKKQFQKSNIKDVEINAHYTAQDWEGFKQLVEKSDIQDKELVLRVLSMYPDPEQREQEIKNISTVFRQLADDILPQLRRSRLIANVEIIGKSDDEIKRLAAQNPGRLTVEELLYSATLLESPAQKE,not soluble
6,MDKSTPRRTYNLRSADRTTQNSPVSRQSLENHRNASVSLRKRSSTSSLQRIQSEFTFTDSATEERCSRKRRRTQQTHGLPFSSPDAINHQRAFHLDEHKVCSKLTTRLSIEVETSYGSFGKLPYDAVIHILTRTPYNLLSRMVMTSSCWNQTIGAYMRSGAFRRRWLLDIDIAPSSKPLDPFFDMGKLVRCLTINYEWKARLDCLKSFMTLAYESGALIAGLGKMIHAFTNRPDEDIVLEQIDDIVAMLLALVSGLKDDLSAVLFTPETDRELEELDNMPILREEMKLRKKTLNLFLNNGSSDPAHGVNKYFLSSLMKVFKTAHNALPTALFYLLFSPTTIQDDEEVIHWHRLSLLSVVTSEEAEELKPLSRAMCALIQCRNLKHVLPWSKNTIFNLMEEITTYPNPWSMSTFVALNVLEPELVPIGVVARMNRNHEDEAGDIICTMKMLLHRWDMDVYGVMESIIDTIKAVLKPYQRRILFDRCWDWHQRNIDEHRNQMGHFSDIRAEIESQIEVMPVLMKLL,not soluble
7,MDKTQSYDIFLIAPPGLEQVLAEEATACGFDEPRVVPGGVETRGPWSEVMRANLVLRGAGRVLVRIGGFPAVHLAQLDKRARKFAWGDFLRPDRPIRVEAVSRKSKIYHAGAAKQRVERAITEELGAPISDEAEIRLMLRIERDFCTFSIDTSGEALHKRGHKEAVGKAPMRETMAALFLRQCGFDGAEPVLDPMCGSGSFVIEAAEWAAGLMPGRSRSFAFEQLAGFDAAQWQSMRNAAGAGGRPESLYSGSDRNAGAIDASRANATRAGVADFCAFHQRPVSDIRPPEGRPGLVIVNPPYGARIGDQARLRSLYGSLGKVLMDRFSGWRVGLITSEMSLARSTRLPFQAPGPVVDHGGIKVRLYQSVRLR,not soluble
8,MDKVIFYSNIRNLIFKKCSIQFLIINDTVAHKEQVAMREMNQLVNTEDSAWPIIQNWLKDATNHTELLPVNKDLAETALYQLQVTTKSPMGALVYGSGGLLIDNGLEHHHHHH,not soluble
9,MDKVLDSALLSSANKRKGILAIGAHPDDIELGCGASLARLAQKGIYIAAVVMTTGNSGTDGIIDRHEESRNALKILGCHQTIHLNFADTRAHLQLNDMISALEDIIKNQIPSDVEIMRVYTMHDADRHQDHLAVYQASMVACRTIPQILGYETPSTWLSFMPQVFESVKEEYFTVKLAALKKHKS,soluble
10,MDLEMMLDEDYKEGICLINFSQIALSTALVNFPDKEKINLSMVRHLILNSIKFNVKKAKTLGYTKIVLCIDNAKSGYWRRDFAYYYKKNRGKAREESTWDWEGYFESSHKVIDELKAYMPYIVMDIDKYEADDHIAVLVKKFSLEGHKILIISSDGDFTQLHKYPNVKQWSPMHKKWVKIKSGSAEIDCMTKILKGDKKDNVASVKVRSDFWFTRVEGERTPSMKTSIVEAIANDREQAKVLLTESEYNRYKENLVLIDFDYIPDNIASNIVNYYNSYKLPPRGKIYSYFVKAGLSKLTNSINEF,soluble
11,MDLFTRKDGTSIHYSTLGEGYPIVLIHTVLDNYSVFNKLAAELAKSFQVVLIDLRGHGYSDKPRHIEIKDFSDDIVELLKYLYIEEVAFVCHEMGGIIGADISVRYPEFTSSLTLVNPTSIEGELPEERLFRKYAHIIRNWDPEKQDKFLNKRKYYRPRKMNRFLKHVVDTNEISTKEEIQAVKEVFKNADISQTYRNVVVPTKIIAGEFGERTTRLEAKEVADLIQNADFEVYQESSAFPFVEEQERFVEDTAAFINKHHDEKHV,not soluble
12,MDLGEFPAPDPSVLVQNFNISDFNGKWYITSGLNPTFDAFDCQLHEFHTEGDNKLVGNISWRIKTLDSGFFTRSAVQKFVQDPNQPGVLYNHDNEYLHYQDDWYILSSKIENKPEDYIFVYYRGRNDAWDGYGGAVVYTRSSVLPNSIIPELEKAAKSIGRDFSTFIRTDNTCGPEPRSHHHHHH,soluble
13,MDLSNRTVLIVGGTSGIGRELARRFAAAGSTVAVGGRSPEALSELAGEGFGTISIDVTDSASVASARDAVLARYPELDTVVTMPGIMLLEDLRDPAHFEAAATTIDTNLVGTIRVIDAFTPHLVRRGAGTFITVTSGIAFLPFPPMPTYAASKAAVHAYSEALRAQLDGTGVSVVELVPPAVATAGQEKVNPHALPLDDFATEVVQLLSEDPTPREILVKAALMHRWAERDGTYDDLVAQRSQALAMLPSREG,not soluble
14,MDLSQGPVRAAQAAPQVLCTASVHHDHPHAIETLVEALGPVELELILLMASPQTDIPALLARAAAVLPGTRIVGCTTAGEISAAGYTEGEIVAIGMPRAYFKAQTMLIDDLTDYDAQAIIDRMIQTRNDLAAARPEWGHEFNFLLIDGLSTLEDRLVSDLAMGLGPVPLFGGSAGDGERFGTTFVFHEGRAHGNAAVLMQVRTRCPIQVFKTDHLIPTEKRMVVTGADPDRRLVHEINAEPAAREYARVLGKDPEQLTTFTFAAHPVVVRIGGQHHVRSIQRVAENGDLVFFSAIDEGLVLTLAEARDMREHLREELGRLAADGPPAVILGCDCLLRRMEAQQKQVLGALSDILRENRVVGFSTYGEQFNSMHVNQTLTGVAIYPPDDM,soluble
15,MDLSVTHMDDLKTVMEDWKNELLVYKFALDALDTKFSIISQEYNLIHGHNPIEHTKSRVKSFESIVNKLMRKGCEITTKEMKEHIHDIAGVRIICSFISDIYNVVNVLKQHEDLRIVKVKDYIQTPKPNGYRSLHLIIEMPVNLTNRVEYVKAEIQIRTIAMDFWASLEHKIYYKLNNDVPKQLTDELKEAAEIAHYLDEKMLGIKKEVD,not soluble
16,MDLTVEPNLHSLITSTTHKWIFVGGKGGVGKTTSSCSIAIQMALSQPNKQFLLISTDPAHNLSDAFGEKFGKDARKVTGMNNLSCMEIDPSAALKDMNDMAVSRANNNGSDGQGDDLGSLLQGGALADLTGSIPGIDEALSFMEVMKHIKRQEQGEGETFDTVIFDTAPTGHTLRFLQLPNTLSKLLEKFGEITNKLGPMLNSFMGAGNVDISGKLNELKANVETIRQQFTDPDLTTFVCVCISEFLSLYETERLIQELISYDMDVNSIIVNQLLFAENDQEHNCKRCQARWKMQKKYLDQIDELYEDFHVVKMPLCAGEIRGLNNLTKFSQFLNKEYNPITDGKVIYELEDKEGLVPRGSLEHHHHHH,soluble
17,MDMMWISYHLKKGGRRLRIRIGIDIGSTHTDAVALEGKELIVADKVMTTPDLTTGLLNAISRVMKKLGERKNEVDTLMIGTTHGLNALHQGKGLNRVATIRIGLPAGEGVPPVFDWPEQLSNFVTYRYMVRGGHEYTGEEIVELDEGKIKEIAEAINGKVDAIAISSIFSVVNSSHEIRAREILREKG,not soluble
18,MDMQHDDLNYEYLYGTTYPLMKNAGKAVADAVMKNYPDARTVCVVAGTGNNGGDAIVAGSILSAKYDVRVLIVTEVRSELARRALSEYGGRVIGLDGMEECMKCDVIIDGIFGVGISGDPKDPYRSVIENINRSCSHVVSVDIPSGLGTRYAVKPEITVTFTMEKYGMNQDNSGKIIVADIGIPPDVRKYAGPGDLLYYPKPDPSSHKGMNGTLAIVGGWEFHGSSVIAALAAERIGLDLVRVFVSPRNYQIVSGYDPGIIVRQVEKLDEKKLSEIYGNSAILLGPGMGKGDDAMEAARKIVSDSRVPMVVDADALDAVGAYSGSFAGRKIIITPHKGEFRRISGFEPTEENAISYARKKGLIVVLKGQVDVITNGEEVHYAKGGNARMTMGGTGDLLAGIISAFLARSVDPMRACLMGTYLNKALGEAAYSKHGYWYTVTDMISEIPGVMGKYIKI,not soluble
19,MDNEMNYGSDYKFIPATSIESGHGIEVLRDLFCYTIQIVNICFVGNPETNDFVLVDAGMPKCANEIISIAKDRFGTNSRPKAIILTHGHFDHVGGIIELIKHWDVHVYAHQMEIPFLTGQQSYPEPDPTVEGGMVAKMSPLFPNEPIDLGNNVKALPTDGTVPHMPEFRWIHTPGHTPGHISLFREKDRTLIAGDAFVTVKQEYLYKVITQEQEISGPPRYLTTDWKAAKESVLKLEKLKPLTAVTGHGIPMSGELLSTSLKTLVQEFDKIAVPDYGKYIDKKMHLEHHHHHH,soluble
20,MDNLMLNNKIYLEGTVVSELEFSHEMYGEGFYTFNLEVMRLSDSKDLLNITVSERLITTMDLKIGTEIVVEGQLRSYNKFIDGNNKLILTVFARNIEYCEERSKNPNEIFLDGFICKEPVYRTTPFGREIADLLLAVNRSYNKSDYIPTIAWGRNSRFCKTLEVGDNIRIWGRLQSREYQKKISETEVVKKIAYEVSISKMEKVSVESEQNESGEEISLEHHHHHH,not soluble
21,MDPELQAIREARLAQLKNNSGGTNGDRNSGANNGGGENSAPVGAAIANFLEPQALERLSRVALVRRDRAQAVETYLKKLIATNNVTHKITEAEIVSILNGIAKQQNSQNNSKIIFERKDFSEDLNSFDKQNAKN,not soluble
